# Molecular target: T1, HA-tagged human Raf1 S259A (human, UniProt P04049 1-648)
# T1 construct: Overexpressed in HUVEC by lentivirus, immunoprecipitated from Triton lysates with anti-HA; also called Raf1SA; RAF1 Ser259 to Ala259 mutant; not shown: HA (hemagglutinin) tag
# Test: co-immunoprecipitation (anti-HA) from lentivirus-infected HUVEC lysates, western blot
binder,measurement,value
"14-3-3 (other, human, UniProt P63104 1-245, looked up, The results speak only of '14-3-3'; the zeta isoform is inferred from the antibody list; Endogenous protein in the cell lysate; also called 14-3-3 protein; 14-3-3ζ) MDKNELVQKAKLAEQAERYDDMAACMKSVTEQGAELSNEERNLLSVAYKNVVGARRSSWRVVSSIEQKTEGAEKKQQMAREYREKIETELRDICNDVLSLLEKFLIPNASQAESKVFYLKMKGDYYRYLAEVAAGDDKKGIVDQSQQAYQEAFEISKKEMQPTHPIRLGLALNFSVFYYEILNSPEKACSLAKTAFDEAIAELDTLSEESYKDSTLIMQLLRDNLTLWTSDTQGDEAEAGEGGEN",binding result,no binding
